{
  "source": "the supplement of paper PMC9170038",
  "data": [
    {"tested_on": "K4 kissing-loop RNA reporter", "assay": "apparent KD of K4 kissing-loop reporter; higher = weaker reporter binding", "settings": "Eterna round: R107; input ligand: FMN 200 uM", "protocol": "(§1)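 RNA-MaP round R107: designed RNA switches with theophylline, tryptophan, arginine or FMN aptamers are transcribed on-chip within common flanks. They are titrated with a labelled K4 kissing-loop RNA reporter in RNA-MaP buffer (100 mM Tris pH 7.5, 80 mM KCl, 4 mM MgCl2), without ligand or with the indicated ligand. Median apparent KD per design.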", "units": {"apparent KD of K4 kissing-loop reporter": "nM"}, "values": [
      {"sequence": "GCUACCUAGGCAGGAUAUAGACAUUGAGUGAUGUUCGAUGAUUAUCCAUAUUCCCGUCACAUAUGACUAGAAGGGCCUAGGUAGC", "apparent KD of K4 kissing-loop reporter": 660},
      {"sequence": "AGUGAUGUAUGGCGGUGUGUCACUUAAAAUCAGGAUAUAUAAACAAAUAGAAGGGAUGGCGGAGUGAUGUUCCGCCGGCCGCCAU [FMN A Exl V2]", "apparent KD of K4 kissing-loop reporter": 173},
      {"sequence": "AAUUUAUUAUCUGAUACCAGACUUUUUCUUGUAUAUAAGUCAAGUGAUGUUUGACUUUUAGUCCCUUGGCAGCAGUAUUUUUUAA [JR_Nu_SSTheophyB_Sub027]", "apparent KD of K4 kissing-loop reporter": 165},
      {"sequence": "AAACAUCACUGGGAGUGAUGUUCUCAGUGACGAGGACCGGUACGGCCGCCACUCGCGAGAGAUAUAGUCUAGUAAUGACUGCAUU [Excl Tryptophan A V9]", "apparent KD of K4 kissing-loop reporter": 299},
      {"sequence": "CUUAGGAGUGGUGUUGAUUAGGGAGCGGAAGGAGCGCCAAUGAUGGCAGGUAGGUCGCCGGAAUAUAGUGAUGUUAUAUAGAGGG [ExArgA.Q]", "apparent KD of K4 kissing-loop reporter": 273},
      {"sequence": "CCGUGGAGUGAUGUUCCACGUUCUACGGAUACCAGCUUUGCCAAAGGCCCUUGGCAGCCGCACCUUGCAGUGAUGUUGUGAGGCU [Same State Theophylline A Gf7]", "apparent KD of K4 kissing-loop reporter": 329},
      {"sequence": "CGCAGUGAUGUUGCUAUUAUUCUUGAUUAACGAGGACCGGUACGGCCGCCACUCGAUUUCUAUCUAAUCCAGUGUUUUGUUGAGU [JR_ExcTryptoA_Sub002]", "apparent KD of K4 kissing-loop reporter": 324},
      {"sequence": "GGUAGCAUGGCGGCCGCCACUACUGACAGCUGUCUGUUCUGGGUACCAGGGAGUGAUGUUCCCGGUAGGACCGGGCCAUGCUACC", "apparent KD of K4 kissing-loop reporter": 135},
      {"sequence": "CCAUUCUUUUACGAUACCAGUUUAAUAUAUUUAUUCAAAACCCUUGCCGAGUGAUGUUCGGACCCUUGGCAGCGUUUGCGAGAGG [ttedstkmullin]", "apparent KD of K4 kissing-loop reporter": 455},
      {"sequence": "AUAGUGAGCUCGGCCGCCACUCCACUAUGUCAACAGUAGCUCUGUCAUAACCAGUGAUGUUGGUUGAGGACCGGGAGUUAAGACU [theeternabot_exclusion_KL_Trp_B_34]", "apparent KD of K4 kissing-loop reporter": 193},
      {"sequence": "UGACUGGACUGAAGGAGCGUUCAGGUAGGUCGCAUAGGAGUGAUGUUCCAAUGAAGGAGCGAGCAGGUAGGUCGCAGUCUAGUCU [ArgBS 13 #DoubleAptamer #SwitchBubble]", "apparent KD of K4 kissing-loop reporter": 157},
      {"sequence": "GGUCCACGCCAUGCCAGUGAUGUUGGUAAGCGAGGACCGGUACGGCCGCCACUCGUUCAAUACCGUAUCGCCCAUAACCUGGAGA [Oneseror]", "apparent KD of K4 kissing-loop reporter": 113},
      {"sequence": "AGUGUUAGGUUAGAUACCAGCCGUCUGUGAGUAACCCACAGACCGCCAGUGAUGUUGGCAGGCCCUUGGCAGCUAACAGGACAGA [Anesarerza]", "apparent KD of K4 kissing-loop reporter": 211},
      {"sequence": "CAUACGCAUGGAGGAUAUGAGAUUACUCAUGUCAUUUAAUAUUCUCAGUGAUGUUGAGAUUUAGGCUCAGAAGGCCAUGUGUAUG [Ex FMN B 17]", "apparent KD of K4 kissing-loop reporter": 355}
    ]},
    {"tested_on": "K4 kissing-loop RNA reporter", "assay": "apparent KD of K4 kissing-loop reporter; higher = weaker reporter binding", "settings": "Eterna round: R107; input ligand: arginine 13.2 mM", "protocol": "as §1", "units": {"apparent KD of K4 kissing-loop reporter": "nM"}, "values": [
      {"sequence": "GGGUGUAGUGCGGCCGCCACUGUGAUAGUAGAAGAGUAUAGUGAUGUUAUAUAGGAUUAAUAGAAUAGGACCGGGCAUUAGACUU [#24 K4 Tryptophan B Same State]", "apparent KD of K4 kissing-loop reporter": 340},
      {"sequence": "CCUAUCUCGUACGAUACCAGUCAAUGAUCUUUGAUCAAUGCCAUCACCGAGUGAUGUUCGGACCCUUGGCAGCGUAUGAGAUGGG [whbob_Ex_Theo_B_sa105]", "apparent KD of K4 kissing-loop reporter": 207},
      {"sequence": "GGUAGCAUGGCGGCCGCCACUAUUACUGGAUCGGAAACGAUCCAGUAUUUAUGAGUGAUGUUCAUUAGGACCGGGCCAUGCUACC", "apparent KD of K4 kissing-loop reporter": 301},
      {"sequence": "AAUAAGGUCGCCGAUACCAGCGCGGGCAGAGCAAAGCUCUGCCCGGCAGUGAUGUUGCCGCGCCCUUGGCAGCGGUGGCACGACC [Omei KL Theo B SS C v7]", "apparent KD of K4 kissing-loop reporter": 48.4},
      {"sequence": "GUCCCGAGUGAUGUUCGGGUCGUUCGGGAAGGAGCGCCCGCAAGGGCAGGUAGGUCGCCCGGAUCUCUCAGGUAACUGAGAGACC [#2 Same State - Arginine A Attempt #28 (HarryS)]", "apparent KD of K4 kissing-loop reporter": 319},
      {"sequence": "GCUACCUAGGCAGGAUAUAGACAUUGAGUGAUGUUCGAUGAUUAUCCAUAUUCCCGUCACAUAUGACUAGAAGGGCCUAGGUAGC", "apparent KD of K4 kissing-loop reporter": 184},
      {"sequence": "AGUGAUGUAUGGCGGUGUGUCACUUAAAAUCAGGAUAUAUAAACAAAUAGAAGGGAUGGCGGAGUGAUGUUCCGCCGGCCGCCAU [FMN A Exl V2]", "apparent KD of K4 kissing-loop reporter": 147},
      {"sequence": "AAUUUAUUAUCUGAUACCAGACUUUUUCUUGUAUAUAAGUCAAGUGAUGUUUGACUUUUAGUCCCUUGGCAGCAGUAUUUUUUAA [JR_Nu_SSTheophyB_Sub027]", "apparent KD of K4 kissing-loop reporter": 149},
      {"sequence": "AAACAUCACUGGGAGUGAUGUUCUCAGUGACGAGGACCGGUACGGCCGCCACUCGCGAGAGAUAUAGUCUAGUAAUGACUGCAUU [Excl Tryptophan A V9]", "apparent KD of K4 kissing-loop reporter": 274},
      {"sequence": "CUUAGGAGUGGUGUUGAUUAGGGAGCGGAAGGAGCGCCAAUGAUGGCAGGUAGGUCGCCGGAAUAUAGUGAUGUUAUAUAGAGGG [ExArgA.Q]", "apparent KD of K4 kissing-loop reporter": 252},
      {"sequence": "CCGUGGAGUGAUGUUCCACGUUCUACGGAUACCAGCUUUGCCAAAGGCCCUUGGCAGCCGCACCUUGCAGUGAUGUUGUGAGGCU [Same State Theophylline A Gf7]", "apparent KD of K4 kissing-loop reporter": 268},
      {"sequence": "CGCAGUGAUGUUGCUAUUAUUCUUGAUUAACGAGGACCGGUACGGCCGCCACUCGAUUUCUAUCUAAUCCAGUGUUUUGUUGAGU [JR_ExcTryptoA_Sub002]", "apparent KD of K4 kissing-loop reporter": 422},
      {"sequence": "GGUAGCAUGGCGGCCGCCACUACUGACAGCUGUCUGUUCUGGGUACCAGGGAGUGAUGUUCCCGGUAGGACCGGGCCAUGCUACC", "apparent KD of K4 kissing-loop reporter": 106},
      {"sequence": "CCAUUCUUUUACGAUACCAGUUUAAUAUAUUUAUUCAAAACCCUUGCCGAGUGAUGUUCGGACCCUUGGCAGCGUUUGCGAGAGG [ttedstkmullin]", "apparent KD of K4 kissing-loop reporter": 376},
      {"sequence": "AUAGUGAGCUCGGCCGCCACUCCACUAUGUCAACAGUAGCUCUGUCAUAACCAGUGAUGUUGGUUGAGGACCGGGAGUUAAGACU [theeternabot_exclusion_KL_Trp_B_34]", "apparent KD of K4 kissing-loop reporter": 164},
      {"sequence": "UGACUGGACUGAAGGAGCGUUCAGGUAGGUCGCAUAGGAGUGAUGUUCCAAUGAAGGAGCGAGCAGGUAGGUCGCAGUCUAGUCU [ArgBS 13 #DoubleAptamer #SwitchBubble]", "apparent KD of K4 kissing-loop reporter": 219},
      {"sequence": "GGUCCACGCCAUGCCAGUGAUGUUGGUAAGCGAGGACCGGUACGGCCGCCACUCGUUCAAUACCGUAUCGCCCAUAACCUGGAGA [Oneseror]", "apparent KD of K4 kissing-loop reporter": 89.1},
      {"sequence": "AGUGUUAGGUUAGAUACCAGCCGUCUGUGAGUAACCCACAGACCGCCAGUGAUGUUGGCAGGCCCUUGGCAGCUAACAGGACAGA [Anesarerza]", "apparent KD of K4 kissing-loop reporter": 226},
      {"sequence": "CAUACGCAUGGAGGAUAUGAGAUUACUCAUGUCAUUUAAUAUUCUCAGUGAUGUUGAGAUUUAGGCUCAGAAGGCCAUGUGUAUG [Ex FMN B 17]", "apparent KD of K4 kissing-loop reporter": 514}
    ]},
    {"tested_on": "K4 kissing-loop RNA reporter", "assay": "apparent KD of K4 kissing-loop reporter; higher = weaker reporter binding", "settings": "Eterna round: R107; input ligand: none", "protocol": "as §1", "units": {"apparent KD of K4 kissing-loop reporter": "nM"}, "values": [
      {"sequence": "GGGUGUAGUGCGGCCGCCACUGUGAUAGUAGAAGAGUAUAGUGAUGUUAUAUAGGAUUAAUAGAAUAGGACCGGGCAUUAGACUU [#24 K4 Tryptophan B Same State]", "apparent KD of K4 kissing-loop reporter": 368},
      {"sequence": "CCUAUCUCGUACGAUACCAGUCAAUGAUCUUUGAUCAAUGCCAUCACCGAGUGAUGUUCGGACCCUUGGCAGCGUAUGAGAUGGG [whbob_Ex_Theo_B_sa105]", "apparent KD of K4 kissing-loop reporter": 251},
      {"sequence": "GGUAGCAUGGCGGCCGCCACUAUUACUGGAUCGGAAACGAUCCAGUAUUUAUGAGUGAUGUUCAUUAGGACCGGGCCAUGCUACC", "apparent KD of K4 kissing-loop reporter": 304},
      {"sequence": "AAUAAGGUCGCCGAUACCAGCGCGGGCAGAGCAAAGCUCUGCCCGGCAGUGAUGUUGCCGCGCCCUUGGCAGCGGUGGCACGACC [Omei KL Theo B SS C v7]", "apparent KD of K4 kissing-loop reporter": 47.2},
      {"sequence": "GUCCCGAGUGAUGUUCGGGUCGUUCGGGAAGGAGCGCCCGCAAGGGCAGGUAGGUCGCCCGGAUCUCUCAGGUAACUGAGAGACC [#2 Same State - Arginine A Attempt #28 (HarryS)]", "apparent KD of K4 kissing-loop reporter": 431},
      {"sequence": "GCUACCUAGGCAGGAUAUAGACAUUGAGUGAUGUUCGAUGAUUAUCCAUAUUCCCGUCACAUAUGACUAGAAGGGCCUAGGUAGC", "apparent KD of K4 kissing-loop reporter": 221},
      {"sequence": "AGUGAUGUAUGGCGGUGUGUCACUUAAAAUCAGGAUAUAUAAACAAAUAGAAGGGAUGGCGGAGUGAUGUUCCGCCGGCCGCCAU [FMN A Exl V2]", "apparent KD of K4 kissing-loop reporter": 157},
      {"sequence": "AAUUUAUUAUCUGAUACCAGACUUUUUCUUGUAUAUAAGUCAAGUGAUGUUUGACUUUUAGUCCCUUGGCAGCAGUAUUUUUUAA [JR_Nu_SSTheophyB_Sub027]", "apparent KD of K4 kissing-loop reporter": 168},
      {"sequence": "AAACAUCACUGGGAGUGAUGUUCUCAGUGACGAGGACCGGUACGGCCGCCACUCGCGAGAGAUAUAGUCUAGUAAUGACUGCAUU [Excl Tryptophan A V9]", "apparent KD of K4 kissing-loop reporter": 292},
      {"sequence": "CUUAGGAGUGGUGUUGAUUAGGGAGCGGAAGGAGCGCCAAUGAUGGCAGGUAGGUCGCCGGAAUAUAGUGAUGUUAUAUAGAGGG [ExArgA.Q]", "apparent KD of K4 kissing-loop reporter": 592},
      {"sequence": "CCGUGGAGUGAUGUUCCACGUUCUACGGAUACCAGCUUUGCCAAAGGCCCUUGGCAGCCGCACCUUGCAGUGAUGUUGUGAGGCU [Same State Theophylline A Gf7]", "apparent KD of K4 kissing-loop reporter": 305},
      {"sequence": "CGCAGUGAUGUUGCUAUUAUUCUUGAUUAACGAGGACCGGUACGGCCGCCACUCGAUUUCUAUCUAAUCCAGUGUUUUGUUGAGU [JR_ExcTryptoA_Sub002]", "apparent KD of K4 kissing-loop reporter": 346}
    ]}
  ]
}
